Numbering of substitutions follows the chain as printed.
B1: wild-type soluble GPVI-Fc (Fc fusion)
chain: QSGPLPKPSLQALPSSLVPLEKPVTLRCQGPPGVDLYRLEKLSSSRYQDQAVLFIPAMKRSLAGRYRCSYQNGSLWSLPSDQLELVATGVFAKPSLSAQPGPAVSSGGDVTLQCQTRYGFDQFALYKEGDPAPYKNPERWYRASFPIITVTAAHSGTYRCYSFSSRDPYLWSAPSDPLELVVTGTSVTPSRLPTEPPSSVAEFSEATAELTVSFTNKVFTTETSRSITTSPKESDSPAGPARQYYTKGNGGR
notes: The gene encodes the ectodomain from the first methionine to asparagine 269; also called wild-type GPVI-Fc; not shown: human IgG1 Fc domain
B2: ACT017 antibody (Fab, V domains shown)
VH: QVQLVQSGAEVKKPGASVKVSCKASGYTFTSYNMHWVRQAPGQGLEWMGGIYPGNGDTSYNQKFQGRVTMTRDTSTSTVYMELSSLRSEDTAVYYCARGTVVGDWYFDVWGQGTLVTVSS
VL: DIQMTQSPSSLSASVGDRVTITCRSSQSLENSNGNTYLNWYQQKPGKAPKLLIYRVSNRFSGVPSRFSGSGSGTDFTFTISSLQPEDIATYYCLQLTHVPWTFGQGTKVEITR
notes: Humanized anti-human GPVI; also called the Fab of the invention

Legend:
Collagen = target: T1, Collagen; assay: ELISA: collagen coated at 20 µg/mL, increasing GPVI-Fc, peroxidase-coupled anti-human Fc, absorbance at 450 nm
T1 construct: Horm collagen (Nycomed) is named only for the platelet aggregation assays; The collagen used in the ELISA is not specified
Procedure: Microtitration plates were coated with Collagen in PBS (20 μg/mL, 100 μL per well) overnight at 4° C.
(§1) Nonspecific binding sites were saturated with 200 μL of 1% BSA in PBS for 30 min. The plates were then incubated with increasing concentrations of wild-type or double mutant GPVI-Fc preparations (100 μL in PBS containing 0.1% BSA and 0.1% Tween 20) for 30 min. After 3 washing rounds plates were incubated with a peroxidase-coupled secondary human anti-Fc(ab) for 30 min. Finally, 100 μL of the substrate solution were added to each well for 4 min, and the colorimetric reaction stopped by 25 μL NaOH 3 M.

[1] = target: T2, double mutant GPVI-Fc (S125P, S126Q, G128R, Q133K, T136S, T171D, A172L, H174V) (human, UniProt Q9HCN6 21-269); assay: ELISA: double mutant GPVI-Fc coated at 20 µg/mL, increasing ACT017, peroxidase-coupled anti-human IgG, absorbance at 450 nm
T2 construct: also called GPVI double mutant; not shown: human IgG1 Fc domain
T2 chain: B1 chain with S105P, S106Q, G108R, Q113K, T116S, T151D, A152L, H154V
Procedure: as §1, with “Microtitration plates were coated with GPVI-Fc in PBS (20 μg/mL, 100 μL per well) overnight at 4° C. Nonspecific” for “Nonspecific”, “ACT017” for “wild-type or double mutant GPVI-Fc”, “anti-IgG” for “anti-Fc(ab)”

[2] = target: B1; assay: ELISA: GPVI-Fc coated at 20 µg/mL, increasing ACT017, peroxidase-coupled anti-human IgG, absorbance at 450 nm
Procedure: as §1, with “Microtitration plates were coated with GPVI-Fc in PBS (20 μg/mL, 100 μL per well) overnight at 4° C. Nonspecific” for “Nonspecific”, “ACT017” for “wild-type or double mutant GPVI-Fc”, “anti-IgG” for “anti-Fc(ab)”

| EC50 (read off the curve) (Collagen) | binding result [1] | EC50 (read off the curve) [2] | Binder |
| --- | --- | --- | --- |
| ~0.6 µg/mL | – | – | B1 |
| – | no binding (tested: about 830 ng/ml) | ~0.03 µg/mL | B2 |

— patent US20190367608A1 (ACTICOR BIOTECH, published 2019)
